Data reported in the supplement of paper PMC10724198.
± gives the standard deviation of the averaged measurements.

These sequences were tested on Saccharomyces cerevisiae (assay: protein stability index of tFT-peptide fusion (C-terminal peptide) (PSI (0-1 scale)); higher = more stable (slower turnover)). Conditions: genetic background: wild type; temperature: 30 C.
Protocol: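 Multiplexed protein stability (MPS) profiling in S. cerevisiae. Random 12-aa peptides (tFT-X12 library) are fused to the C-terminus of a sfGFP-mCherry tandem fluorescent timer, after mCherry and a GGGS linker. Cells are FACS-sorted into 8 mCherry/sfGFP bins and deep-sequenced. The protein stability index (PSI) is the read-weighted bin average, scaled from 0 (unstable) to 1 (stable). Only peptides with >10 reads are reported; cells were grown at 30 °C in SC-His with glucose.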
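Further: PSI is a weighted mean of sequencing reads over stability bins, variants kept only with over 10 reads, mCherry proximal and sfGFP distal, peptide attached via GGGS linker.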

In order of falling protein stability index:
1. WARSLPHPISRR  0.803 ± 0.064
2. ELELDRTEWVTI  0.799 ± 0.05
3. LASLVANSRNSL  0.798 ± 0.27
4. YEYPRVTFSPQT  0.7878 ± 0.005
5. DRTNIIGVIDDL  0.753 ± 0.05
6. PLPLPPSPPFQF  0.751 ± 0.011
7. PLPPPTSPPSPP  0.749 ± 0.11
8. HTPPAPLPSSPH  0.749 ± 0.0079
9. NMRQGPLAGLAG  0.748 ± 0.072
10. ALSFFGSCCLPF  0.748 ± 0.014
11. RARPPPQLHLSP  0.745 ± 0.012
12. SFRPPPPSSFPA  0.745 ± 0.019
13. PFCVPPPRPFSL  0.743 ± 0.036
14. REKEKGYLNKKK  0.743 ± 0.041
15. GVWVRGTRRGWG  0.741 ± 0.2
16. RKKKKKEKKKVE  0.741 ± 0.037
17. ALCVPRTGPFFI  0.737 ± 0.02
18. PVCLHPPPSHTH  0.737 ± 0.061
19. FLRPALACDVYN  0.737 ± 0.05
20. SGVRAAGEGDSE  0.735 ± 0.033
21. PAPPAPPPPPYL  0.735 ± 0.087
22. LRVGMWNNVINR  0.734 ± 0.12
23. KKQKEKEKLVYC  0.733 ± 0.085
24. PFPPPPPPPRSP  0.728 ± 0.047
25. WDGWPTGSGGTG  0.72654 ± 0.00043
26. YSPSCPRTSPLL  0.726 ± 0.046
27. LWGGAGLRCGGF  0.726 ± 0.017
28. GCVGGGWRHVGV  0.725 ± 0.059
29. VRVYLSQNSRFG  0.723 ± 0.066
30. TSKVEVDKGKLE  0.723 ± 0.051
31. NKWKASRKYRKR  0.723 ± 0.025
32. WPAPLPPTRPLP  0.722 ± 0.038
33. FPASLDAVTRPP  0.722 ± 0.011
34. APPARSPPPPRP  0.7216 ± 0.0026
35. PRACPSSPASSL  0.722 ± 0.024
36. FGWFDIKDSTNS  0.7177 ± 0.0048
37. FSQLVQPSSFTS  0.7176 ± 0.004
38. LRPLVRLLHSYP  0.718 ± 0.031
39. FFYGLHSHCAIP  0.717 ± 0.081
40. VWVGGVSVGFFG  0.716 ± 0.061
41. GREEDLVAPPFN  0.715 ± 0.054
42. CGRPRGGEPGGA  0.715 ± 0.078
43. SNPLRPHLPPHF  0.714 ± 0.054
44. KVNKKKVITKQE  0.713 ± 0.027
45. PPHAPPPPPHVP  0.713 ± 0.039
46. SPSPPHPLTTTL  0.711 ± 0.075
47. GVLSLFGFNTVV  0.71 ± 0.16
48. SRSGVSTRGVPC  0.709 ± 0.0073
49. RDERDWDGSSWA  0.708 ± 0.03
50. PCSGSFFLEFRV  0.707 ± 0.021
51. ARRTSAGVWCTA  0.705 ± 0.04
52. GSLWGGFFRGLL  0.70105 ± 0.00018
53. KEKKNKKKKQNR  0.701 ± 0.021
54. WGYRLRGGGGQG  0.701 ± 0.064
55. PPPPPAPPPQPS  0.699 ± 0.011
56. RTTKRNDYLSHI  0.699 ± 0.08
57. ACDGIRRPVRGG  0.697 ± 0.059
58. IGLRCPPPKPYA  0.696 ± 0.035
59. RPSLEKQETEKT  0.696 ± 0.056
60. AVGLGPFGGSRG  0.695 ± 0.0095
61. WNCRILGLVMRG  0.695 ± 0.029
62. FYAGELSCRHQT  0.694 ± 0.025
63. PPGPPLPRPRRP  0.694 ± 0.043
64. RTDTKPTGEHEA  0.694 ± 0.045
65. RGMPMARVRSAG  0.693 ± 0.054
66. GPTPHQPRMDPR  0.693 ± 0.011
67. ALSLPFERVRDT  0.692 ± 0.022
68. GTRQWPARSDVV  0.692 ± 0.031
69. GVYRGNNGSPVK  0.689 ± 0.0086
70. AFFYLRGQESLL  0.688 ± 0.077
71. GSGIFHPVDLGL  0.688 ± 0.02
72. PRRHLALLISEG  0.6868 ± 0.00082
73. VACCKIRSGKSH  0.687 ± 0.056
74. SLCCPLHQTRFR  0.684 ± 0.046
75. SPFGFPPPSPPA  0.6843 ± 0.003
76. DLVNTVCTVLDN  0.6836 ± 0.0039
77. DGAVRLGVGGLG  0.682 ± 0.041
78. SFRLLCPPPPLP  0.6805 ± 0.0046
79. PLPRPPSPPPAP  0.68 ± 0.12
80. RPNTVHLQALYN  0.6802 ± 0.0046
81. QAGARGRRGVRG  0.678 ± 0.016
82. GEGGEGWGCFSF  0.677 ± 0.021
83. ELSARVCLGSLF  0.676 ± 0.015
84. GGVGGPGLDGWK  0.676 ± 0.059
85. SSLDTPSFDSSL  0.675 ± 0.018
86. YQVTEEKLIMTQ  0.674 ± 0.036
87. PQPPPPPPLSVS  0.673 ± 0.0087
88. GGGIGWRAGEFG  0.673 ± 0.0016
89. GKTRLIEDTQTT  0.67 ± 0.019
90. SGAVVIPCTFER  0.669 ± 0.025
91. GARRLGLMVFDG  0.669 ± 0.066
92. TEINEAQNIPEK  0.6688 ± 0.0027
93. CLHTSVYFHLQR  0.669 ± 0.04
94. VIRGVVPVVRSV  0.668 ± 0.037
95. SFYFSAFYPSIV  0.667 ± 0.013
96. RDGRNSKPTYQP  0.667 ± 0.025
97. PPCPGPLPPPPP  0.6663 ± 0.0025
98. WGCVGVGGLFSG  0.665 ± 0.017
99. PSPPTLILPPHP  0.663 ± 0.0095
100. RAGKEGRVSSSK  0.6619 ± 0.0057
101. NSSPCPLPLLPP  0.662 ± 0.036
102. QKEETGGLGGGK  0.6609 ± 0.0025
103. HPPTLCPLSRRH  0.659 ± 0.047
104. VLGWCLCGRTCG  0.6579 ± 0.0013
105. SGGRCVGVGGVV  0.658 ± 0.028
106. LISLERRGVAGR  0.657 ± 0.043
107. LTGESGDRSVGP  0.657 ± 0.019
108. LFDRFVAGVRYG  0.656 ± 0.021
109. AEGPAGNRGLGG  0.6564 ± 0.0058
110. CGCVWVSYFFDK  0.655 ± 0.069
111. LCRLTNVCGAVV  0.6543 ± 0.004
112. LALWNGVSMEEE  0.654 ± 0.039
113. GWWVVTLRSGLR  0.651 ± 0.09
114. PPLTPSPPRSFP  0.651 ± 0.08
115. HLRPRYSLVPAT  0.651 ± 0.048
116. PLSPPLPRPPPL  0.649 ± 0.11
117. LGGVGSSGDVVA  0.648 ± 0.017
118. FQAPGGEIMSPS  0.647 ± 0.012
119. APNGTPPLSLAS  0.646 ± 0.017
120. QKERENKHTEIE  0.645 ± 0.21
121. KKKKKKKNTKTK  0.644 ± 0.0076
122. NFPPTPECSFVS  0.643 ± 0.0086
123. GCGEGVGASVGR  0.641 ± 0.011
124. GPRLSGGLGGVG  0.637 ± 0.045
125. RGGGGGSAVEGG  0.635 ± 0.095
126. YEEGRGEWIKKI  0.632 ± 0.051
127. FGDPRRTDPLRL  0.631 ± 0.04
128. PPPPRPLPPAPP  0.63 ± 0.075
129. ISVEELKSIKKK  0.6296 ± 0.0019
130. GGYYIFGLCDLL  0.625 ± 0.075
131. TICVILNGVGYS  0.625 ± 0.11
132. VCSPLLIYSVGV  0.624 ± 0.051
133. HIKSENKEKGKI  0.624 ± 0.022
134. VSFCDVEVRFFV  0.619 ± 0.066
135. SPPLPPPARLPA  0.615 ± 0.019
136. KKKKKQRNQKAK  0.612 ± 0.032
137. STPPLSLRPLLR  0.608 ± 0.055
138. LSPTPSAPPCFG  0.601 ± 0.043
139. KEHTKKQERTPK  0.596 ± 0.051
140. EVIRFMEKLPFR  0.589 ± 0.025
141. VFLRVLLECLDF  0.5666 ± 0.0036
142. ALLPFLTPLLSR  0.561 ± 0.054
143. ARVIISGYWILY  0.519 ± 0.048
144. PTVPYRLVLSTV  0.511 ± 0.056
145. FVGCVNIFLSWG  0.51 ± 0.019
146. APRIILTCRSLT  0.5 ± 0.1
